The values that follow come from patent US20230295324A1.

Experiment [1] addresses human OX40 on cells (CHO-K1/hu OX40) (human) (UniProt P43489). As to the kind of experiment: FACS, blocking of biotin-human OX40L on CHO-K1/hu OX40 cells. A general note: In flow cytometry, cells or beads pass a laser one at a time.
Experiment [2] shares this target. In words: FACS, CHO-K1/hu OX40 cells.
Experiment [3] shares this target. As to the kind of experiment: cell-based or functional assay.

Sequence of human OX40 on cells (CHO-K1/hu OX40) (human) (P43489 29-277): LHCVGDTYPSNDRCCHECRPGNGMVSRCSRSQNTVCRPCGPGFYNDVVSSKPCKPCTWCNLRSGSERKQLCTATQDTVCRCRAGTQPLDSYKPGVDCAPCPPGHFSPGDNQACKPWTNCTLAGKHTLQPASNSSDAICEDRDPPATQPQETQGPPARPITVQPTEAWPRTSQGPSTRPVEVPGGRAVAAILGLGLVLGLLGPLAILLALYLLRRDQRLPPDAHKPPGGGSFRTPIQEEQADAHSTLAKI

B1: PR002075 (antibody, human IgG1, V domains shown)
VH: EVQLVETGGGLIQPGGSLRLSCAASGFTFSSYAMSWVRQAPGKGLEWVSAISGSGGNTYYADSVRGRFTISRDNSKNTLYLQMNSLRAEDTAVYYCANGITGTTDVDYWGQGTRVTVSS
B1: the Maximum inhibition rate (%) in experiment [1] was determined as 0%. In experiment [2], this molecule yielded a Maximum MFI of 501 MFI. In experiment [3], this molecule showed an EC50, HEK293/OX40/NF-kb luciferase reporter of 136 nM and a Maximum fluorescence signal value, HEK293/OX40/NF-kb luciferase reporter of 140000 luminescence.
